Earlier results as cited in patent publication US20090048308A1, “VLA-4 Antagonists” (priority 2005, published 2009).

Target: T1, VLA-4 (Homo sapiens, UniProt P13612)
T1 construct: host or cells: VLA-4-bearing blood cells of trial subjects (inferred)
Conditions: early clinical trials

receptor occupancy: > 80%
Substance: natalizumab: humanized monoclonal antibody against α4 (Tysabri®, Elan/Biogen)
